Consider four molecules from patent publication US20030198634A1 (published 2003).

In one assay the target is T1, human lymphotoxin (TNFβ) (human, UniProt P01374 35-205, limits assumed).
T1 sequence (looked up): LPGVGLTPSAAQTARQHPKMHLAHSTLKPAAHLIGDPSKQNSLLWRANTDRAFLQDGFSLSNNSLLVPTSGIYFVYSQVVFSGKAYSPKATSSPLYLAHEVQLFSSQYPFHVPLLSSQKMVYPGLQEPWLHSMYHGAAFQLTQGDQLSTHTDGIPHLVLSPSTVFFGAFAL
As to the kind of experiment: cell-based or functional assay.

In assay [1] the target is human tumor necrosis factor-α (TNFα) (human, UniProt P01375 77-233). Description: cell-based or functional assay.
Sequence of human tumor necrosis factor-α (TNFα) (P01375 77-233): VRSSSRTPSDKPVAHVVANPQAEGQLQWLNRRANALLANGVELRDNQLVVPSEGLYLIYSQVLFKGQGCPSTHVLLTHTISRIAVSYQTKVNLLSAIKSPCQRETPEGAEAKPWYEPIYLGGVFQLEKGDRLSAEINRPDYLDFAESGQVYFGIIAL

In the assay with human lymphotoxin (TNFβ), “p55-sf2 (p55 TNF receptor/IgG1 heavy chain single fusion with truncated light chain JCK) (from UniProt P19438) (Fc fusion)” showed an amount needed for the same degree of inhibition of TNFβ, against p75P-sf2 (fold against p75P-sf2) of 3.

B1: chimeric mouse/human IgG1 anti-platelet mAb (7E3) (antibody, INN chains, looked up, V domains shown)
VH: EVQLQQSGTVLARPGASVKMSCEASGYTFTNYWMHWVKQRPGQGLEWIGAIYPGNSDTSYIQKFKGKAKLTAVTSTTSVYMELSSLTNEDSAVYYCTLYDGYYVFAYWGQGTLVTVSA
VL: EIVLTQSPVTLSVTPGDSVSLSCRASRDISNNLHWFQQTSHESPRLLIKYASQSMSGIPSRFSGSGSGTDFTLSINSVETEDFGMYFCQQTNSWPYTFGGGTKLEIK
modifications: IgG1
In the case of B1, in assay [1], the IL-6 in supernatant of FS-4 fibroblasts (ng/ml), rhTNF 0.3 ng/ml, antibody 4 µg/ml (no antibody: 1.36) turned out to be 1.6 ng/mL; the IL-6 in supernatant of FS-4 fibroblasts (ng/ml), rhTNF 1.5 ng/ml, antibody 4 µg/ml (no antibody: 2.00) turned out to be 1.96 ng/mL; the IL-6 in supernatant of FS-4 fibroblasts (ng/ml), rhTNF 7.5 ng/ml, antibody 4 µg/ml (no antibody: 2.56) is 2.16 ng/mL.

B2: p75-sf2 (complete extracellular domain of p75 fused to the IgG1 heavy chain) (Fc fusion)
chain: QLPAQVAFTPYAPEPGSTCRLREYYDQTAQMCCSKCSPGQHAKVFCTKTSDTVCDSCEDSTYTQLWNWVPECLSCGSRCSSDQVETQACTREQNRICTCRPGWYCALSKQEGCRLCAPLRKCRPGFGVARPGTETSDVVCKPCAPGTFSNTTSSTDICRPHQICNVVAIPGNASMDAVCTSTSPTRSMAPGAVHLPQPVSTRSQHTQPTPEPSTAPSTSFLLPMGPSPPAEGSTGDGTLVTVSS
With B2, in the assay with human lymphotoxin (TNFβ), the “amount needed for the same degree of inhibition of TNFβ, against p75P-sf2” value is 3 fold against p75P-sf2.

B3: p75P-sf2 (p75 amino acids 1-182 fused to the IgG1 heavy chain; lacks the C-terminal 53 amino acids of the p75 extracellular domain) (Fc fusion)
chain: QLPAQVAFTPYAPEPGSTCRLREYYDQTAQMCCSKCSPGQHAKVFCTKTSDTVCDSCEDSTYTQLWNWVPECLSCGSRCSSDQVETQACTREQNRICTCRPGWYCALSKQEGCRLCAPLRKCRPGFGVARPGTETSDVVCKPCAPGTFSNTTSSTDICRPHQICNVVAIPGNASMDAVCTSTSDGTLVTVSS
Consider B3, for which, in assay [1], the “IC50 = concentration of fusion protein required to inhibit 2 ng/ml (39.2 pM) TNFα by 50%, WEHI 164 cytotoxicity assay” value was determined as 70 pM and the “Molar ratio fp: TNFα at IC50, WEHI 164 cytotoxicity assay” value came out at 1.8.
